Here are results for four substances from publication doi:10.1101/2021.12.16.472884.

The term stoichiometry N denotes a count of units in the complex or per binding partner.

Test in all cases: SEC
Assay [1] deals with His6 tagged recombinant pNL4-3-derived IN R262A/R263A/D256R (HIV-1 (NL4-3)).
The target in assay [2] is His6 tagged recombinant pNL4-3-derived IN R262A/R263A/D256N/D270N (HIV-1 (NL4-3)).
Assay [3] addresses His6 tagged recombinant pNL4-3-derived IN R269A/K273A/D256N/D270N (HIV-1 (NL4-3)).
Assay [4] concerns the target His6 tagged recombinant pNL4-3-derived IN R269A/K273A/D256R (HIV-1 (NL4-3)).

As for “His6 tagged recombinant pNL4-3-derived IN R262A/R263A/D256R (enzyme)”, the stoichiometry N in assay [1] came out at 4.

As to “His6 tagged recombinant pNL4-3-derived IN R262A/R263A/D256N/D270N (enzyme)”, the stoichiometry N in assay [2] came to 4.

“His6 tagged recombinant pNL4-3-derived IN R269A/K273A/D256N/D270N (enzyme)”: the stoichiometry N in assay [3] was determined as 4.

For the substance “His6 tagged recombinant pNL4-3-derived IN R269A/K273A/D256R (enzyme)”, the stoichiometry N in assay [4] came out at 4.
